According to patent publication US20040063641A1, “Use of growth hormone or a growth hormone secretagogue for promoting bone formation” (priority 1996, published 2004):

Legend:
[1] = test system: distracted tibia (bone regenerate); test: Mechanical torsion testing of distracted tibia after callus distraction in mini-pigs; type: in vivo, Yucatan mini-pigs; settings: r-pGH 100 μg/kg daily injection
Protocol: After sacrifice, the right and left limb were dissected. The soft tissue around the joints was removed, and the ends of the tibia were casted in Beracryl. The constructs were placed in a materials testing machine (Zwick, Ulm, Germany), and torsional moments were applied. Resulting displacements and torsional moments were recorded. The test was conducted with a speed of 30° per minute until failure. The system automatically terminated the test at a torque of […]. The final bone torsional strength of a mini-pig group treated with growth hormone was investigated relative to a control group. 30 mature female Yucatan mini-pigs were equally distributed into two treatment groups. Mini-pigs in the study group received a daily injection of recombinant porcine growth hormone (r-pGH: 100 μg/kg), the mini-pigs in the control group received sodium chloride as placebo. The left tibiae and fibulae were osteotomized and stabilized with an external fixator. Full weight bearing was permitted. The legs were distracted twice daily at 2 mm/day for 10 days and then allowed to consolidate for 10 days. After sacrifice, torsional moments were applied to the distracted and the contralateral tibia in a material testing machine and the maximum torsional moment was determined. Four animals were removed from the study due to bone infection or surgery failure and data of 2 animals were lost due to test machine failure. A t-test was used to determine differences in maximum torsional moments between the treatment groups.

healing fracture = settings: dogs treated with cST; no distraction; cited from earlier work

| Molecule | maximum torsional moment in comparison to the intact contralateral tibia ([1]; at sacrifice, p<0.001 vs control) | maximum torsional moment ([1]; distracted tibia at sacrifice, mean±SD, p=0.001 vs placebo) | maximum torsional moment, higher than that of the placebo group ([1]; distraction 2 mm/day for 10 days, consolidation 10 days, at sacrifice, p=0.001) | increase of stiffness of the healing fracture as compared to non-treated dogs (healing fracture) | increase of strength of the healing fracture as compared to non-treated dogs (healing fracture) |
| --- | --- | --- | --- | --- | --- |
| GH: recombinant porcine growth hormone (r-pGH), homologous GH given by daily injection to mini-pigs (protein, UniProt P01248 27-216, looked up) Somatotropin: FPAMPLSSLFANAVLRAQHLHQLAADTYKEFERAYIPEGQRYSIQNAQAAFCFSETIPAPTGKDEAQQRSDVELLRFSLLLIQSWLGPVQFLSRVFTNSLVFGTSDRVYEKLKDLEEGIQALMRELEDGSPRAGQILKQTYDKFDTNLRSDDALLKNYGLLSCFKKDLHKAETYLRVMKCRRFVESSCAF | 64±22.4% | 19.5±7.8 Nm | 131% |  |  |
| cST: canine somatotropin, given to dogs in the cited study of Buonomo et al. (protein, UniProt P33711 27-216, looked up) Somatotropin: FPAMPLSSLFANAVLRAQHLHQLAADTYKEFERAYIPEGQRYSIQNAQAAFCFSETIPAPTGKDEAQQRSDVELLRFSLLLIQSWLGPVQFLSRVFTNSLVFGTSDRVYEKLKDLEEGIQALMRELEDGSPRAGQILKQTYDKFDTNLRSDDALLKNYGLLSCFKKDLHKAETYLRVMKCRRFVESSCAF |  |  |  | 5 fold | 3 fold |
